Key:
Assay in all cases: IP/MS, LZTR1 wild type-FLAG, U87
ZCCHC6 = molecular target: T1, ZCCHC6 (human, UniProt Q5VYS8 1-1495, limits assumed)
T1 sequence (looked up): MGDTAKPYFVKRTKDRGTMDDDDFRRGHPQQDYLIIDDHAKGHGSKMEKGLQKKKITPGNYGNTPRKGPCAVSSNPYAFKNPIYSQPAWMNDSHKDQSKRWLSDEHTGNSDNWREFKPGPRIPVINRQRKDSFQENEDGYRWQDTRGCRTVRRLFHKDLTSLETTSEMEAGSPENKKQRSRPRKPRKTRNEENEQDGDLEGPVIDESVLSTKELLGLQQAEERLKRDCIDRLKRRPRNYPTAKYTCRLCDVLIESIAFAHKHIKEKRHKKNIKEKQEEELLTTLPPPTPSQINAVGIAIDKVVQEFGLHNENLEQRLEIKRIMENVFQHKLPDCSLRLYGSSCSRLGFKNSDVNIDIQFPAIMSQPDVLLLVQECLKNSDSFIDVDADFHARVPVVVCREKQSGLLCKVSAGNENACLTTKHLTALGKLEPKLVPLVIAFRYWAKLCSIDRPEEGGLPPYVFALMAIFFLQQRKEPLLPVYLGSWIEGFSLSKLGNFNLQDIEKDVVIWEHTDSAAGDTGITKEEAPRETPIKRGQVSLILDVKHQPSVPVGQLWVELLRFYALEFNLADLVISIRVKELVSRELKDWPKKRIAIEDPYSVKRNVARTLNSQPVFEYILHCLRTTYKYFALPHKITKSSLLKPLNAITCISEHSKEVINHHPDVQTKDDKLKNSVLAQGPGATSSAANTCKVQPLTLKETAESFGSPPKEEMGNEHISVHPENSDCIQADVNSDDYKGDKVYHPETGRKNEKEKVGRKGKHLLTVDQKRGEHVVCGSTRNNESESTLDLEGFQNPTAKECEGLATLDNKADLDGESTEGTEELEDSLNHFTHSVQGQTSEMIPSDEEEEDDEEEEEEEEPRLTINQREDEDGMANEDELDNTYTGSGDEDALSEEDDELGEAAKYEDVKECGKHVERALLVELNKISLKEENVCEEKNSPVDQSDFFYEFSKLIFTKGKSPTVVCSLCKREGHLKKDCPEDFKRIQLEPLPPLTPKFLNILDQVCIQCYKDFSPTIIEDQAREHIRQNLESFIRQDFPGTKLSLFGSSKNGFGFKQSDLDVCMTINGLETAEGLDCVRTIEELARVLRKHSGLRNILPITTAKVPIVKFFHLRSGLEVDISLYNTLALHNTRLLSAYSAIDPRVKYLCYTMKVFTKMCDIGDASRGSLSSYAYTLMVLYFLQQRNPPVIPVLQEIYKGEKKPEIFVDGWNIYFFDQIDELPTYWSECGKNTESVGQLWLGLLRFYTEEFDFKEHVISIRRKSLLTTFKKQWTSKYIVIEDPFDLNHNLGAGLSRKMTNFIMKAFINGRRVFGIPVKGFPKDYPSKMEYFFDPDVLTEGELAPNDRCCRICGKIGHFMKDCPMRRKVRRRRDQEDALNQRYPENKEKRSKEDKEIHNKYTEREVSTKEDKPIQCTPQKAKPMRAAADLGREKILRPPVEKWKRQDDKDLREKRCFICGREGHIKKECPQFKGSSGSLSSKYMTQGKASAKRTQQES
Procedure, shortened: (§1)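 Gel slices were reduced with 5 mM DTT, alkylated with 11 mM IAA and digested overnight at 37° C. with trypsin. Peptides were analysed on an Orbitrap Fusion Tribrid by LC-MS/MS.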

PEAK1 = PEAK1 (human, UniProt Q9H792 1-1746)
Sequence of PEAK1 (Q9H792 whole entry): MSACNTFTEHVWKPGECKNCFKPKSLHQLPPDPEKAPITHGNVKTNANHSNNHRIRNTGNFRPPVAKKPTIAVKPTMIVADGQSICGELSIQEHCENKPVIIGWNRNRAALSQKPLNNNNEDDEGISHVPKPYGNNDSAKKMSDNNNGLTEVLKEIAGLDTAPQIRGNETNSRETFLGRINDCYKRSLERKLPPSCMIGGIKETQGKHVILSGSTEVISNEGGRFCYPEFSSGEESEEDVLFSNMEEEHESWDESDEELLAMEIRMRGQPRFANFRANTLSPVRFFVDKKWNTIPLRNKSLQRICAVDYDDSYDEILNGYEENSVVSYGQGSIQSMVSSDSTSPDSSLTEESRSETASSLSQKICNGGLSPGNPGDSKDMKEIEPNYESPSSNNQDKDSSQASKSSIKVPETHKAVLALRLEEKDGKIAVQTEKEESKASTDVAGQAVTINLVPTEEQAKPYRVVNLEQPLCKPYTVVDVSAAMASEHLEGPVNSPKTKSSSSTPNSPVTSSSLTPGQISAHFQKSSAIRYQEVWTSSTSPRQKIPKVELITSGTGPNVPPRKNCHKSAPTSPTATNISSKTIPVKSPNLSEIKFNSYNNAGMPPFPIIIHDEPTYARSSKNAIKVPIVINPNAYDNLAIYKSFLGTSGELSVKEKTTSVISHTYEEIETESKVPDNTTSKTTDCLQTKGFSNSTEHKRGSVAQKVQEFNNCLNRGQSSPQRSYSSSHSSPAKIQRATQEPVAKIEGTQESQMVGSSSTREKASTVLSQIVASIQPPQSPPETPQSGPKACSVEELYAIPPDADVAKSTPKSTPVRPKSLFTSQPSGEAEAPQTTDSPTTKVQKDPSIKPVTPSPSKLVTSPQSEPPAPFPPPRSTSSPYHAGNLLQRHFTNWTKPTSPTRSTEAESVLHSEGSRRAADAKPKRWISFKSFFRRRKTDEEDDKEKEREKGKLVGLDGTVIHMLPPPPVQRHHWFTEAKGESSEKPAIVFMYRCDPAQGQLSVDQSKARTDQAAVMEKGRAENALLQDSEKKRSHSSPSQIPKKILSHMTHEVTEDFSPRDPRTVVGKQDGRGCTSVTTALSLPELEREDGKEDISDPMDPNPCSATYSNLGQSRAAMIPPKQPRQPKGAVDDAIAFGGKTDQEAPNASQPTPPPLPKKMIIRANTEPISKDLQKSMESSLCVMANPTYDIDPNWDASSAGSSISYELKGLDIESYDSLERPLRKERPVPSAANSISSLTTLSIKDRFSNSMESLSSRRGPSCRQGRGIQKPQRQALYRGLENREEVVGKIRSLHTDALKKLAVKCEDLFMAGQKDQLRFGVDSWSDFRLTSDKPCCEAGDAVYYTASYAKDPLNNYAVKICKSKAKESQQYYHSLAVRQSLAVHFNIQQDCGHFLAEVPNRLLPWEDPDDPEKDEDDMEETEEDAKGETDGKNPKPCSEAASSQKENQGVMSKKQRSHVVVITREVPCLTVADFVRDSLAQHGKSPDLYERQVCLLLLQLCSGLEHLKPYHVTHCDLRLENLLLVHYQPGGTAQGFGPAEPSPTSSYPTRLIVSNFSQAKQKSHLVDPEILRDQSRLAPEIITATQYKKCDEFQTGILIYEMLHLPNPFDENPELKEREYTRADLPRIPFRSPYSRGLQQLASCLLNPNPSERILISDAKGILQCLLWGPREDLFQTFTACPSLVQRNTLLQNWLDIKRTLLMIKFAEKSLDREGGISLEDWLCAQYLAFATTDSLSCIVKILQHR
Procedure, shortened: as §1

ARHGEF28 = ARHGEF28 (human, UniProt Q8N1W1 1-1705, limits assumed)
Sequence of ARHGEF28 (Q8N1W1 whole entry): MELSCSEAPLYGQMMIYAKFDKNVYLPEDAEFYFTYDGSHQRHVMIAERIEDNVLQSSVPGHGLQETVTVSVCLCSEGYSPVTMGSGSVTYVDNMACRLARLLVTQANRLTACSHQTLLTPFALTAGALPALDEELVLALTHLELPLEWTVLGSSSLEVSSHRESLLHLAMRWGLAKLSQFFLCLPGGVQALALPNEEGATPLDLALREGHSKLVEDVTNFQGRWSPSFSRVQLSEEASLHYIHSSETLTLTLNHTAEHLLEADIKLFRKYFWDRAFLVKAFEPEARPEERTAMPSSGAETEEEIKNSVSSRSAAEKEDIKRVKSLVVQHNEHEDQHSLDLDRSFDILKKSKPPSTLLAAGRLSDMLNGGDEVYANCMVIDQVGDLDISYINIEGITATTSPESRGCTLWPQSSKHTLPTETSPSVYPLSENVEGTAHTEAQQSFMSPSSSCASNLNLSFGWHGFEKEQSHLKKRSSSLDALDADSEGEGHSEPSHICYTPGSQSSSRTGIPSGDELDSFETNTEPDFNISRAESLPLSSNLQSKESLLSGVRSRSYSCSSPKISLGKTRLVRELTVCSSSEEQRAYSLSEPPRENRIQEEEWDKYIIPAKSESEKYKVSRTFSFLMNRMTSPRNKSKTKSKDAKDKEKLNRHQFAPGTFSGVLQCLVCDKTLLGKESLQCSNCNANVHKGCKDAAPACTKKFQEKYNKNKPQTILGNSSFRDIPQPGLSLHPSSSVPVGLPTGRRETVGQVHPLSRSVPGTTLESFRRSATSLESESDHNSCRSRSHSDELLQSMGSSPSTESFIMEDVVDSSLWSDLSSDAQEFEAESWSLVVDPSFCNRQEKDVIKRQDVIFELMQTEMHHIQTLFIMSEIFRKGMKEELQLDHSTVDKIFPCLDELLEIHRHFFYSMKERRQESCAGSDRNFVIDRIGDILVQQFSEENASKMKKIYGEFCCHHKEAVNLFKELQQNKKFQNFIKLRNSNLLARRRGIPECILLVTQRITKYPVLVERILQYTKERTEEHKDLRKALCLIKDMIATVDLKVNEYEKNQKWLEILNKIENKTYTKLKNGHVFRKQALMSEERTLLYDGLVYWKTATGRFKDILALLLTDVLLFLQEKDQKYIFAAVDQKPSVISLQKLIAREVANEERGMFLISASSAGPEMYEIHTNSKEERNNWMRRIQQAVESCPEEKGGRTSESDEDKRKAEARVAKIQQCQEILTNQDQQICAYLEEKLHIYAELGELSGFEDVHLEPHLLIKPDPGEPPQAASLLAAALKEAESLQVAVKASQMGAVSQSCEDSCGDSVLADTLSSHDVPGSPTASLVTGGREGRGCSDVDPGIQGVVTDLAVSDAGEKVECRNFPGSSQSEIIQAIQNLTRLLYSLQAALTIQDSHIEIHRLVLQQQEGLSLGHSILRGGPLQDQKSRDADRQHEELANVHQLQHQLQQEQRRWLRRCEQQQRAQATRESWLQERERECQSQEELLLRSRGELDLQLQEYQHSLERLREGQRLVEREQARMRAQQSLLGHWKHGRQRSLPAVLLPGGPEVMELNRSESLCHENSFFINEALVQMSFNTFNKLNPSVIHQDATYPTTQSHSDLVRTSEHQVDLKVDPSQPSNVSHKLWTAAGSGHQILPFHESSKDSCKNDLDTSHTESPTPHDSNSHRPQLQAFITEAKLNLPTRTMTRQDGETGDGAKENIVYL
Procedure, shortened: as §1

RUSC2 = RUSC2 (human, UniProt Q8N2Y8 1-1516)
Sequence of RUSC2 (Q8N2Y8 whole entry): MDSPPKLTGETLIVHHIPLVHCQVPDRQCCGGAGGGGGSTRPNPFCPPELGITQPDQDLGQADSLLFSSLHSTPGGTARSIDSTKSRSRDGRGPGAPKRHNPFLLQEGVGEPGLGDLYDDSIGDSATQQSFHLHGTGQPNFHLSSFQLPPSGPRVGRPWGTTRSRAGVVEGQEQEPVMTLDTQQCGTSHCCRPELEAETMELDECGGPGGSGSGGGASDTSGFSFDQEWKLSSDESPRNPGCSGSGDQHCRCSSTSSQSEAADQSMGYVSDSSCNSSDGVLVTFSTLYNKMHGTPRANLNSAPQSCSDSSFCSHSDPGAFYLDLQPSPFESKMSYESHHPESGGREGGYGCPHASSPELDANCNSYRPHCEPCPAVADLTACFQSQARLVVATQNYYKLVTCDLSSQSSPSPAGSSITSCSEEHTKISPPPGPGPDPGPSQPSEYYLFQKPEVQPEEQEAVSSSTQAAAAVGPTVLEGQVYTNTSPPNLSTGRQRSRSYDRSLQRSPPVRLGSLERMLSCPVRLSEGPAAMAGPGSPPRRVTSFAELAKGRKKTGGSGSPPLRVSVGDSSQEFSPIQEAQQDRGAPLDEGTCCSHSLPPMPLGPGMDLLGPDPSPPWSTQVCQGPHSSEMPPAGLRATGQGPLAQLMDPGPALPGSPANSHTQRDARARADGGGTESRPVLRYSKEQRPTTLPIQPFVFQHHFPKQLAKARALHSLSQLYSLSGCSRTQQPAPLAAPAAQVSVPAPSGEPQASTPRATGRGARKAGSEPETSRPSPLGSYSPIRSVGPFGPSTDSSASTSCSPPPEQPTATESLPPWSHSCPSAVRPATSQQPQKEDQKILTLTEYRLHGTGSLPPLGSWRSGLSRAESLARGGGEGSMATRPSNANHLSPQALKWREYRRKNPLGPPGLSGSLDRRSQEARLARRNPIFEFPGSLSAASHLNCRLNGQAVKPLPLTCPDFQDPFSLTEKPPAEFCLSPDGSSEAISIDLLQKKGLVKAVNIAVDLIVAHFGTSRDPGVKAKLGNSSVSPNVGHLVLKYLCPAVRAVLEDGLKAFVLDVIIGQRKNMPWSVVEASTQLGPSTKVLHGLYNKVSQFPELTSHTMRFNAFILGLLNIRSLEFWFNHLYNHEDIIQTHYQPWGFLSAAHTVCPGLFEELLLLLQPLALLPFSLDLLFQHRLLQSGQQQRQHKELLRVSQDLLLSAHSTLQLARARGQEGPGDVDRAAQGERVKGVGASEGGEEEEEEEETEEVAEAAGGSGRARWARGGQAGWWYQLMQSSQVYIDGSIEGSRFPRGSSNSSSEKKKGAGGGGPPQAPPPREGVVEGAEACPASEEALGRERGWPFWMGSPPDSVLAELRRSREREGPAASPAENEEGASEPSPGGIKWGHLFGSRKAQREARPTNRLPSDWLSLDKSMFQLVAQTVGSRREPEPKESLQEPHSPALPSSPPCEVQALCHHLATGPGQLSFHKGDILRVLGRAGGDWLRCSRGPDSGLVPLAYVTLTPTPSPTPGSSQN
Procedure, shortened: as §1

Measured: binding result

B1: LZTR1-FLAG (other, human, UniProt Q8N653 1-840, looked up)
chain: MAGPGSTGGQIGAAALAGGARSKVAPSVDFDHSCSDSVEYLTLNFGPFETVHRWRRLPPCDEFVGARRSKHTVVAYKDAIYVFGGDNGKTMLNDLLRFDVKDCSWCRAFTTGTPPAPRYHHSAVVYGSSMFVFGGYTGDIYSNSNLKNKNDLFEYKFATGQWTEWKIEGRLPVARSAHGATVYSDKLWIFAGYDGNARLNDMWTIGLQDRELTCWEEVAQSGEIPPSCCNFPVAVCRDKMFVFSGQSGAKITNNLFQFEFKDKTWTRIPTEHLLRGSPPPPQRRYGHTMVAFDRHLYVFGGAADNTLPNELHCYDVDFQTWEVVQPSSDSEVGGAEVPERACASEEVPTLTYEERVGFKKSRDVFGLDFGTTSAKQPTQPASELPSGRLFHAAAVISDAMYIFGGTVDNNIRSGEMYRFQFSCYPKCTLHEDYGRLWESRQFCDVEFVLGEKEECVQGHVAIVTARSRWLRRKITQARERLAQKLEQEAAPVPREAPGVAAGGARPPLLHVAIREAEARPFEVLMQFLYTDKIKYPRKGHVEDVLLIMDVYKLALSFQLCRLEQLCRQYIEASVDLQNVLVVCESAARLQLSQLKEHCLNFVVKESHFNQVIMMKEFERLSSPLIVEIVRRKQQPPPRTPLDQPVDIGTSLIQDMKAYLEGAGAEFCDITLLLDGHPRPAHKAILAARSSYFEAMFRSFMPEDGQVNISIGEMVPSRQAFESMLRYIYYGEVNMPPEDSLYLFAAPYYYGFYNNRLQAYCKQNLEMNVTVQNVLQILEAADKTQALDMKRHCLHIIVHQFTKVSKLPTLRSLSQQLLLDIIDSLASHISDKQCAELGADI
notes: Expressed in HEK 293T, HeLa or U87 cells; used as cell lysate; also called LZTR1 wild type-FLAG; LZTR1 WT; not shown: FLAG tag at the C-terminus
binds: all assays above
